Results published in patent US20130011386A1.

These substances were tested against FcγRIIIa (human) (UniProt P08637) (assay: cell-based or functional assay).
Sequence of FcγRIIIa (human) (P08637 17-208 limits assumed): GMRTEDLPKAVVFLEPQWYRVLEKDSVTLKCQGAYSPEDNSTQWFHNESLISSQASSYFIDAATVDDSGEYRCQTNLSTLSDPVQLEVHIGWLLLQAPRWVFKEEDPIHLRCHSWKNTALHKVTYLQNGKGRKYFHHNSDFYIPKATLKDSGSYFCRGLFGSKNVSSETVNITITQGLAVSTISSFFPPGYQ
Substance “2h S239D/K326A/E333A (construct 16), anti-CD142 antibody” has an ADCC EC50 of 0.14 ng/mL. “2h S267E/I332E (construct 17), anti-CD142 antibody” showed an ADCC EC50 of 5.6 ng/mL and an ADCC fold (EC50 IgG1 wt/EC50 construct) of 0.08 fold. “IgG1 wt (construct 1), anti-CD142 antibody with wild type human IgG1 constant region” was tested, and the ADCC EC50 was 0.42 ng/mL and the ADCC fold (EC50 IgG1 wt/EC50 construct) was 1 fold.

Target: FcγRIIIa (human) (UniProt P08637)
Experiment: cell-based or functional assay
Remark: another data set of the same source
“2h F243L/R292P/Y300L (construct 7), anti-CD142 antibody” showed an ADCC EC50 of 0.31 ng/mL and an ADCC fold (EC50 IgG1 wt/EC50 construct) of 15 fold. Substance “2h G237A/S239D/I332E (construct 12, X = A), anti-CD142 antibody” has an ADCC EC50 of 0.47 ng/mL and an ADCC fold (EC50 IgG1 wt/EC50 construct) of 10 fold. “2h K326A/E333A (construct 11), anti-CD142 antibody” showed an ADCC EC50 of 21 ng/mL and an ADCC fold (EC50 IgG1 wt/EC50 construct) of 0.2 fold. “2h S239D/H268F/S324T/I332E (construct 9), anti-CD142 antibody” showed an ADCC EC50 of 0.7 ng/mL. With “2h S239D/I332E (construct 5), anti-CD142 antibody” the ADCC (shift in apparent EC50 against IgG1 wt), PBMC effectors, MDA-MB-231 targets was 8 fold, the ADCC EC50 was 0.53 ng/mL and the ADCC fold (EC50 IgG1 wt/EC50 construct) was 9 fold. “IgG1 wt (construct 1), anti-CD142 antibody with wild type human IgG1 constant region” was tested, and the ADCC EC50 was 4.8 ng/mL.
